These results are taken from US20230002478A1.

Common to all, as to conditions: remark: other sources report otherwise
The target in experiment [1] is biotinylated SARS-CoV-2 spike RBD (Ancestral) (SARS-CoV-2), P0DTC2. The experiment can be described thus: AlphaLISA, inhibition of ACE2-muFc / biotinylated spike complex. Background: Alpha assays give light when donor and acceptor beads are brought close together.
Experiment [2] addresses biotinylated D614G SARS-CoV-2 spike trimer (SARS-CoV-2), P0DTC2. The experiment is described as above.
The target in experiment [3] is S1 RBD fused to mouse Fc, Beta variant (SARS-CoV-2), P0DTC2. The experiment in a line: flow cytometry: inhibition of S1 RBD-mFc binding to Vero E6 cells (ACE2).
The target in experiment [4] is SARS-CoV-2 S RBD (K417N) (SARS-CoV-2), P0DTC2. The experiment can be described thus: SPR. Background: In SPR one partner is held on a chip, and binding of the other changes the refractive index at the surface.
Experiment [5] concerns the target SARS-CoV-2 S Trimer (SARS-CoV-2), P0DTC2. The experiment can be described thus: SPR.
Experiment [6] addresses SARS-CoV-2 S RBD (E484K) (SARS-CoV-2), P0DTC2. The experiment in a line: SPR.
Experiment [7] addresses SARS-CoV-2 S1-Fc (South Africa 178-08) (SARS-CoV-2), P0DTC2. The experiment can be described thus: SPR.
For experiment [8], the target named is SARS-CoV-2 S1 (D614G) (SARS-CoV-2), P0DTC2. The experiment in a line: SPR.
Experiment [9] concerns the target SARS-CoV-2 S RBD (N439K) (SARS-CoV-2), P0DTC2. The experiment can be described thus: SPR.
Experiment [10] addresses SARS-CoV-2 S RBD (N501Y) (SARS-CoV-2), P0DTC2. The experiment in a line: SPR.
Experiment [11] addresses SARS-CoV-2 S RBD (Y453F) (SARS-CoV-2), P0DTC2. The experiment in a line: SPR.
Experiment [12] concerns the target biotinylated SARS-CoV-2 spike trimer, Delta (SARS-CoV-2), P0DTC2. The experiment in a line: AlphaLISA, inhibition of ACE2-muFc / biotinylated spike complex.
For experiment [13], the target named is S1 RBD-mFc (Acro SPD-05259) (SARS-CoV-2), P0DTC2. The experiment in a line: flow cytometry: inhibition of S1 RBD-mFc binding to Vero E6 cells (ACE2).

In general, IC50 refers to the concentration that inhibits the measured activity by half. The Kd is the free concentration of one partner at which half of the binding sites on the other are occupied at equilibrium, for simple one-to-one binding. Low values mean a tighter complex, high ones a looser complex.

B1: antibody 202-03 (Fc fusion)
chain: EVQLVESGGGLVQPGGSLRLSCAASGFTFSPSWMGWFRQAPGKEREFVATINEYGGRNYADSVKGRFTISADNSKNTAYLQMNSLKPEDTAVYYCARVDRDFDYWGQGTLVTVSS
As for B1, the IC50 in experiment [1] stood at 8.3 nM; in experiment [2] it was 4 nM; in experiment [3], 0.587 nM.

B2: 6-3 (Fc fusion)
chain: EVQLVESGGGLVQPGGSLRLSCAASGFTFSPSWMGWFRQAPGKEREFVATINEYGGRNYADSVKGRFTISADNSKNTAYLQMNSLKPEDTAVYYCARVDRDFDYWGQGTLVTVSS
B2: the Kd in [4] is 5.9 nM; in [5] it was 2.4 nM; in [6], 4.6 nM; in experiment [7], 6.1 nM; in experiment [8] it was 19 nM; in experiment [9], 9.5 nM. The equilibrium dissociation constant (Kd) in experiment [10] turned out to be 0.71 nM; in experiment [11] it was 5.7 nM.

B3: antibody 339-031 (Fc fusion)
chain: EVQLVESGGGLVQPGGSLRLSCAASGSTFSINAMGWFRQAPGKEREFVAGITSSGGYTNYADSVKGRFTISADNSKNTAYLQMNSLKPEDTAVYYCAADGVPEYSDYASGPVWGQGTLVTVSS
On to B3, for which the IC50 was 5.6 nM in experiment [1]; 2.1 nM in experiment [2]; 3 nM in [12]; over 100 nM in experiment [3]; 1.25 nM in experiment [13].
